Values belong to the binder of their own block, whether it stands above or below them.
B7: GST-POP3 (other)
chain: MESKYKEILLLTSLDNITDEELDRFKCFLPDEFNIATGKLHTLNSTSSQLDLKRWHGVCSEEDRIFQKLNYMLVAKCLREEQETGICGSPSSARSVSQSRLGLSFHGISGNAC
notes: also called recombinant POP3; immobilized GST-POP3; not shown: glutathione S-transferase (GST) tag encoded by pGEX-4T1

How the values were obtained:
co-IP in HEK293 cells = biological target: the molecule itself; test: co-IP in HEK293 cells
AIM2 [1] = biological target: T1, AIM2 (human, UniProt O14862 1-343); test: figure title (pull-down, co-IP, co-localisation)
T1 construct: Endogenous in THP-1 lysates and hMΦ; N-terminally tagged (RFP, myc) where transfected into HEK293; also called endogenous AIM2; RFP-AIM2
T1 sequence (looked up): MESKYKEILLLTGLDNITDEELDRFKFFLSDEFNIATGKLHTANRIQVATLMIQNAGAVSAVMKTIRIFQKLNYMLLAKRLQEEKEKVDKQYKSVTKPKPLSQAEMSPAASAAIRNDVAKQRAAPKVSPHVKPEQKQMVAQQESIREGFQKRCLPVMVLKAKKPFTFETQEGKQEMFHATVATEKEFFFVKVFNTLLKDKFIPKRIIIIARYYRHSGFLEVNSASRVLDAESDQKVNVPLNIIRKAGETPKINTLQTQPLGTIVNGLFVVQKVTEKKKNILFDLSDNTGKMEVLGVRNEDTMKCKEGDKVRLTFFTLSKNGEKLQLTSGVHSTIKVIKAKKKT

GST control = biological target: T2, GST control (UniProt P08515 1-218 = GST); test: GST pull-down (FIG. 4a)
T2 construct: Negative control of the GST pull-downs
T2 sequence (P08515 whole entry): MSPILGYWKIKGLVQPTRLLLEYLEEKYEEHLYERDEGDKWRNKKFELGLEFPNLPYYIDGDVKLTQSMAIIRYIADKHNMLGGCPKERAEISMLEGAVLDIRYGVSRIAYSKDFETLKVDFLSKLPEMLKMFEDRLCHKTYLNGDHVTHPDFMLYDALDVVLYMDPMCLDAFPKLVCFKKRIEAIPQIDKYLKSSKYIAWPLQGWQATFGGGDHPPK
Experimental: (§1) For GST pull down experiments, POP3 was cloned into pGEX-4T1 and affinity purified as a GST fusion protein from E. coli BL21. Proteins were either prepared by in vitro transcription/translation (TNT Quick Coupled Transcription/Translation, Promega), or TCL were prepared from […] (16 hrs) BMDM or THP-1 cells by lysis (50 mM Hepes pH 7.4, 120 mM NaCl, 10% Glycerol, 2 mM EDTA, 0.5% Triton X-100, supplemented with protease inhibitors) as a source of endogenous proteins, and cleared lysates were incubated with immobilized GST-POP3 or GST control for 16 hrs at 4° C., followed by extensive washing with lysis buffer and analysis as above. For ASC cross-linking, 4×10⁶ BMDM were seeded in 60 mm plates and subjected to cross-linking as described 55. Briefly, cells were transfected with 1 μg/ml poly (dA:dT) for 5 hrs, supernatants were removed, cells rinsed with ice-cold PBS and lysed (20 mM Hepes pH 7.4, 100 mM NaCl, 1% NP-40, 1 mM sodium orthovanadate, supplemented with protease inhibitors) and further lysed by shearing. Cleared lysates were stored for immunoblot analysis and the insoluble pellets were resuspended in 500 μl PBS, supplemented with 2 mM disuccinimydyl suberate (DSS, Pierce) and incubated with rotation at room temperature for 30 min. Samples were centrifuged at 5,000 rpm for 10 min at 4° C. and the cross-linked pellets were resuspended in 50 μl Laemmli sample buffer and analyzed by immunoblot. Human lung tissue was embedded in paraffin, cut into 3 μm sections, mounted, deparaffinized and immunostained with mouse monoclonal CD68 (Dako) and rabbit polyclonal POP3 and peroxidase (HRP)/DAB+ and alkaline phosphatase (AP)/Fast Red enzyme/chromogen combinations (Dako) and specific isotype controls (Dako) and haemotoxylin counterstaining of nuclei.
(§2) GST-POP3, but not GST control, bound to the PYD of AIM2 and IF116.

AIM2 from BMDM = biological target: T3, AIM2 from BMDM (mouse, UniProt Q91VJ1 1-354); test: GST pull-down from BMDM lysates (FIG. 22c)
T3 construct: also called mAIM2; mouse AIM2
T3 sequence (looked up): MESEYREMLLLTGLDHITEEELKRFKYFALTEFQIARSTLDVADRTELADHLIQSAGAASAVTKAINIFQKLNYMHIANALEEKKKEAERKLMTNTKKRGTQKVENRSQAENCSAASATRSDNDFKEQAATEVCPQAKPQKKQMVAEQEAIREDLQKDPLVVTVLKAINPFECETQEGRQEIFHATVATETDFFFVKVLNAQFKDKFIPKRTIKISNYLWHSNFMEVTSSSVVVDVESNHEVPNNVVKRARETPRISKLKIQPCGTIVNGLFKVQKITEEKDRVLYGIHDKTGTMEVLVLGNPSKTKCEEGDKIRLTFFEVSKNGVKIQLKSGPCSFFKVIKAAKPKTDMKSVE
Experimental: (§3) POP1 was expressed from pGEX-4T1 and affinity purified as a GST fusion protein from E. coli BL21 (Stehlik et al. Biochem. J 373, 101-113 (2003); herein incorporated by reference in its entirety). Protein lysates were prepared from LPS-treated (16 h) BMDM or THP-1 cells by lysis (50 mM Hepes pH 7.4, 120 mM NaCl, 10% Glycerol, 2 mM EDTA, 0.5% Triton X-100, supplemented with protease inhibitors), and cleared lysates were incubated with immobilized GST-POP1 or GST control for 16 h at 4° C., followed by extensive washing with lysis buffer and analysis as above.

NLRP3 from BMDM = biological target: T4, NLRP3 from BMDM (mouse, UniProt Q8R4B8 1-1033); test: GST pull-down from BMDM lysates (FIG. 22c)
T4 construct: also called mNLRP3; mouse NLRP3
T4 sequence (Q8R4B8 whole entry): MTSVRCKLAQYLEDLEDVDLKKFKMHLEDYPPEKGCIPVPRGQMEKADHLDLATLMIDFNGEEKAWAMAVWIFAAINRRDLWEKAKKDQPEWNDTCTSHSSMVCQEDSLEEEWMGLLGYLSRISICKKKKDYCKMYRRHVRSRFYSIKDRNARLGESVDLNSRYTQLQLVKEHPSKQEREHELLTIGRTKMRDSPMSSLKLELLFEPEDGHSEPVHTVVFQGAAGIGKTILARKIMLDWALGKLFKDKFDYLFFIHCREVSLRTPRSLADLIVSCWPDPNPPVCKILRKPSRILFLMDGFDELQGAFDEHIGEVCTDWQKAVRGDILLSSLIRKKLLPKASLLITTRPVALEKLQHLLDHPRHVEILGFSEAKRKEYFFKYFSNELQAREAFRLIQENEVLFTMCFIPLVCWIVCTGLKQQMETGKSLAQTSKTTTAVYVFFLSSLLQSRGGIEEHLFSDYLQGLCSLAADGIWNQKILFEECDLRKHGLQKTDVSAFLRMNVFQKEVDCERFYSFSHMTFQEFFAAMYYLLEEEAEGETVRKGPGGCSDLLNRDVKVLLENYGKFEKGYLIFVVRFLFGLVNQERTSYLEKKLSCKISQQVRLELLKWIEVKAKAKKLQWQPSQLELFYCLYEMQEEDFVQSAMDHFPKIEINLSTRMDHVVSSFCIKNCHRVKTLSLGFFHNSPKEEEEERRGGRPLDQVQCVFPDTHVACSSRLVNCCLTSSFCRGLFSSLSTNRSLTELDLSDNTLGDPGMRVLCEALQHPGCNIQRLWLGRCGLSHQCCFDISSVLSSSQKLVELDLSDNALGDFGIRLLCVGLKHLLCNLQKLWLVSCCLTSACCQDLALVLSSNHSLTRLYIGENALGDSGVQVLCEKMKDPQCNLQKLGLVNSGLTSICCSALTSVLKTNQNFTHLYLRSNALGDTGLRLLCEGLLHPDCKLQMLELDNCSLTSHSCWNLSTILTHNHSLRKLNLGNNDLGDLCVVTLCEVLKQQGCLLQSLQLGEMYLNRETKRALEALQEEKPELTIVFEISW
Experimental: as §3

NLRP3 = biological target: T5, NLRP3 (human, UniProt Q96P20 1-1036); test: GST pull-down from THP-1 lysates (FIG. 18a)
T5 construct: Endogenous in THP-1 lysates; MYC-tagged where transfected into HEK293; also called MYC-NLRP3; endogenous NLRP3
T5 sequence (Q96P20 whole entry): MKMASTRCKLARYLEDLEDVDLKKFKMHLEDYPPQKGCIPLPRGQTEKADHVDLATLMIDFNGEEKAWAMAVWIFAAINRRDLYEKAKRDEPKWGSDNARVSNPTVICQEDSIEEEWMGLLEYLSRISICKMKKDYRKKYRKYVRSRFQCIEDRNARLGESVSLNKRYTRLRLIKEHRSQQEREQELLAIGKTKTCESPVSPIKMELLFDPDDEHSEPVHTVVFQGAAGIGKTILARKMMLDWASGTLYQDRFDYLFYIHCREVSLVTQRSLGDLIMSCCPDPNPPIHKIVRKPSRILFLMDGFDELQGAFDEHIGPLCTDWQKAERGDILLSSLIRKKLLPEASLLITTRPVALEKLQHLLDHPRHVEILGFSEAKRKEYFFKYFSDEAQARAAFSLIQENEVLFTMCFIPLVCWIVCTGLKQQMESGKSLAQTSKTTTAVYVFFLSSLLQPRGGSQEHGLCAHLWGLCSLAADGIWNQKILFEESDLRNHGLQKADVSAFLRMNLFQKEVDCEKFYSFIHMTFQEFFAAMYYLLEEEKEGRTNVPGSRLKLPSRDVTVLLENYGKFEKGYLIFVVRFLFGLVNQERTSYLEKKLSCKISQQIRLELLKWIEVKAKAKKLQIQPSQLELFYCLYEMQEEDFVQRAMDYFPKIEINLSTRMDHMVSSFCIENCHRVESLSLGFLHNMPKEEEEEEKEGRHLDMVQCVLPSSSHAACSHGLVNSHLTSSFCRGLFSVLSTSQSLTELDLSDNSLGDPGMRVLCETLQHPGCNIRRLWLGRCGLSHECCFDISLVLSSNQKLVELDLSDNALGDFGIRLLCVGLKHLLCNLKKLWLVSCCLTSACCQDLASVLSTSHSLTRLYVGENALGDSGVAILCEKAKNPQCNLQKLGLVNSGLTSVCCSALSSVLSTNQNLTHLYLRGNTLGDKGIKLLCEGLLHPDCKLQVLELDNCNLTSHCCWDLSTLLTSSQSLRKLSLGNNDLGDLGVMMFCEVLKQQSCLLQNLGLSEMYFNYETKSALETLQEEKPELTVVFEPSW
Experimental: as §3
(§4) Recruitment of ASC to upstream sensors is essential for inflammasome activation. POP1 specifically bound to endogenous ASC, but not to the PYD-containing PRRs NLRP3 and AIM2 in LPS-primed THP-1 cells (FIG. 18a), emphasizing the selectivity of these interactions. […] Binding of ASC to NLRP3 induces ASC^PYD nucleation, which provides the oligomeric platform essential for caspase-1 activation (Lu et al. Cell 156, 1193-206 (2014); Cai et al. Cell 156, 1207-22 (2014); herein incorporated by reference in their entireties). […] POP1 binding to the ASC^PYD could also directly prevent ASC^PYD self-polymerization.

AIM2 [2] = biological target: T1, AIM2; test: GST pull-down from THP-1 lysates (FIG. 18a)
Experimental: as §3, §4

GST-POP3 = biological target: B7; test: GST pull-down (FIG. 4a)
Experimental: as §1, §2

mouse ASC = biological target: T6, mouse ASC (mouse, UniProt Q9EPB4 1-193); test: GST pull-down from BMDM lysates (FIG. 11a)
T6 construct: also called mASC; endogenous ASC in BMDM
T6 sequence (looked up): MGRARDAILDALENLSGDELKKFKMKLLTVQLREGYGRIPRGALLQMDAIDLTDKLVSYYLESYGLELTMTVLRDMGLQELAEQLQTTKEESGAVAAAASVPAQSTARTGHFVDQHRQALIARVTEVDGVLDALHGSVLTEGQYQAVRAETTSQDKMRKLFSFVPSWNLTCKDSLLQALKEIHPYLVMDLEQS
Experimental: For GST pull down experiments, POP3 was cloned into pGEX-4T1 and affinity purified as a GST fusion protein from E. coli BL21. Proteins were either prepared by in vitro transcription/translation (TNT Quick Coupled Transcription/Translation, Promega), or TCL were prepared from […] (16 hrs) BMDM or THP-1 cells by lysis (50 mM Hepes pH 7.4, 120 mM NaCl, 10% Glycerol, 2 mM EDTA, 0.5% Triton X-100, supplemented with protease inhibitors) as a source of endogenous proteins, and cleared lysates were incubated with immobilized GST-POP3 or GST control for 16 hrs at 4° C., followed by extensive washing with lysis buffer and analysis as above. For ASC cross-linking, 4×10⁶ BMDM were seeded in 60 mm plates and subjected to cross-linking as described 55. […] Samples were centrifuged at 5,000 rpm for 10 min at 4° C. and the cross-linked pellets were resuspended in 50 μl Laemmli sample buffer and analyzed by immunoblot. […]
The PYDs of human and mouse ALRs are well conserved. […] To delineate the mechanism by which POP3 inhibits ALR inflammasomes in mouse macrophages, ASC oligomerization was analyzed in response to AIM2 inflammasome stimulation with poly(dA:dT) in WT and CD68-POP3 TG BMDM as a readout for AIM2 inflammasome formation (Fernandes-Alnemri et al. Nature.

B1: POP3 (other)
chain: MESKYKEILLLTSLDNITDEELDRFKCFLPDEFNIATGKLHTLNSTSSQLDLKRWHGVCSEEDRIFQKLNYMLVAKCLREEQETGICGSPSSARSVSQSRLGLSFHGISGNAC
notes: POP3 as expressed in cells (HEK293, THP-1, hMΦ); in some microscopy endogenous POP3; also called GFP-POP3; PYRIN domain-only protein 3; not shown: N-terminal tag; GFP-POP3 is named for the co-IP, constructs with myc, HA, Flag, GFP or RFP were made
- binding result (co-IP in HEK293 cells): binds
- binding result (AIM2 [1]): binds

B2: PYD of AIM2 (other, human, UniProt O14862 1-87, looked up)
chain: MESKYKEILLLTGLDNITDEELDRFKFFLSDEFNIATGKLHTANRIQVATLMIQNAGAVSAVMKTIRIFQKLNYMLLAKRLQEEKEK
notes: domain: PYD; Made by in vitro transcription/translation for the GST pull-down; GFP- or RFP-tagged in HEK293 for the antibody specificity blot; also called AIM2-PYD
- binding result (GST control): no binding

B3: GST-POP1 (other)
chain: MGTKREAILKVLENLTPEELKKFKMKLGTVPLREGFERIPRGALGQLDIVDLTDKLVASYYEDYAAELVVAVLRDMRMLEEAARLQRAA
notes: also called immobilized GST-POP1; not shown: glutathione S-transferase (GST) tag encoded by pGEX-4T1
- binding result (AIM2 from BMDM): no binding
- binding result (NLRP3 from BMDM): no binding
- binding result (NLRP3): no binding
- binding result (AIM2 [2]): no binding

Binder: B7
- binding result (mouse ASC): no binding

More lines, now with the values ahead:

- binding result (GST control): no binding
B4: PYD of IFI16 (other, human, UniProt Q16666 1-88, looked up)
chain: MGKKYKNIVLLKGLEVINDYHFRMVKSLLSNDLKLNLKMREEYDKIQIADLMEEKFRGDAGLGKLIKIFEDIPTLEDLAETLKKEKLK
notes: domain: PYD; also called IFI16-PYD; IF116 PYD

- binding result (GST-POP3): no binding
B5: PYD of MNDA (other, human, UniProt P41218 1-88, looked up)
chain: MVNEYKKILLLKGFELMDDYHFTSIKSLLAYDLGLTTKMQEEYNRIKITDLMEKKFQGVACLDKLIELAKDMPSLKNLVNNLRKEKSK
notes: domain: PYD; also called MNDA-PYD

- binding result (GST-POP3): no binding
B6: PYD of PYHIN1 (other, human, UniProt Q6K0P9 1-88, looked up)
chain: MANNYKKIVLLKGLEVINDYHFRIVKSLLSNDLKLNPKMKEEYDKIQIADLMEEKFPGDAGLGKLIEFFKEIPTLGDLAETLKREKLK
notes: domain: PYD; also called IFIX-PYD
